Measured values: US20160185837A1 (AstraZeneca / MedImmune, published 2016)
Numbering of substitutions follows the chain as printed.

T1: human GIP receptor (human, UniProt P48546 22-466)
T1 sequence (looked up): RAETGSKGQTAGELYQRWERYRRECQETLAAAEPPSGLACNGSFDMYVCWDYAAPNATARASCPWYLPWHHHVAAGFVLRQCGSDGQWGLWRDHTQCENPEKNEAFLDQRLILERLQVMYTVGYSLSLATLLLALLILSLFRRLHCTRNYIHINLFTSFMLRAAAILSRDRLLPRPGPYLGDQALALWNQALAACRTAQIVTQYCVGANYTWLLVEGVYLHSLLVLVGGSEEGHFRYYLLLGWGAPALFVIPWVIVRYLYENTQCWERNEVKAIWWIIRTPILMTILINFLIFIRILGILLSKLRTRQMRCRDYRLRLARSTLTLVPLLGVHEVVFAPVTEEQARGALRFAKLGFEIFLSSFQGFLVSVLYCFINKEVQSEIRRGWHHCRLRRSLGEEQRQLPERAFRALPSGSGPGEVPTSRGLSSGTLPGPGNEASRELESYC

T2: mouse GLP-1 receptor (mouse, UniProt O35659 22-463)
T2 sequence (looked up): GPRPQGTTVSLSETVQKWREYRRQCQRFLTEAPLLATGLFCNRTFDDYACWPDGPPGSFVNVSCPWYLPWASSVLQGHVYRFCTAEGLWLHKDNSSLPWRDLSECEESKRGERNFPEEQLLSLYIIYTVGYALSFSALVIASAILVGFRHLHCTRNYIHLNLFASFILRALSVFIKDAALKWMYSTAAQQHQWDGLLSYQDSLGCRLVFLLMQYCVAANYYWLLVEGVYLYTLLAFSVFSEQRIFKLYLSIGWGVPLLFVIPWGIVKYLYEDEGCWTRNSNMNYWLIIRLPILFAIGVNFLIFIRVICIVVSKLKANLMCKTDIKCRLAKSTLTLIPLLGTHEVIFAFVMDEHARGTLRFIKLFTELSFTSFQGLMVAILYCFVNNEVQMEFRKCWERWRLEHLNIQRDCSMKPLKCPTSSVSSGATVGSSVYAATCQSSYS

T3: mouse GIP receptor (mouse, UniProt Q0P543 19-460)
T3 sequence (looked up): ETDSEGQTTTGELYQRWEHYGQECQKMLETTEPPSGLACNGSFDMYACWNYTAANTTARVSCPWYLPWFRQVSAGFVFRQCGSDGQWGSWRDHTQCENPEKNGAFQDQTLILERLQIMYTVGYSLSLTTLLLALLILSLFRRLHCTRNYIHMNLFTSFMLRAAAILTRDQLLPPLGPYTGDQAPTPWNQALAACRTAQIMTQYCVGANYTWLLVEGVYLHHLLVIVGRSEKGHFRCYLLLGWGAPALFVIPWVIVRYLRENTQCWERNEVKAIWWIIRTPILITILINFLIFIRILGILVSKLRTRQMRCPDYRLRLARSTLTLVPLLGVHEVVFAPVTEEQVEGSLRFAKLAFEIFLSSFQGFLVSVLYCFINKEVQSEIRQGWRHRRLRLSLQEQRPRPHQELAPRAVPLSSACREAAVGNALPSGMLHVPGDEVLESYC

T4: rat GLP-1 receptor (rat, UniProt P32301 22-463)
T4 sequence (looked up): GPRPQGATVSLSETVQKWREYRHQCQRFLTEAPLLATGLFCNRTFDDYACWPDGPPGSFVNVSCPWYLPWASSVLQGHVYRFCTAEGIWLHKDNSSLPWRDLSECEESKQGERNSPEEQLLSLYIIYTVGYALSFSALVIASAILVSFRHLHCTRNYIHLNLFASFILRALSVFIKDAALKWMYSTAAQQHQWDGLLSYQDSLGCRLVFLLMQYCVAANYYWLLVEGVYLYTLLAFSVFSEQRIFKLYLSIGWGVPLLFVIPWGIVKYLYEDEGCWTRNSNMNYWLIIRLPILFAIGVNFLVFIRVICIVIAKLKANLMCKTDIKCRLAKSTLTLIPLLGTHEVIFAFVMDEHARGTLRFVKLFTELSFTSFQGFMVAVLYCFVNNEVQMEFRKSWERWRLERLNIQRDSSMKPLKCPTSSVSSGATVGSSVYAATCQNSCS

T5: rat GIP receptor (rat, UniProt P43219 19-455)
T5 sequence (looked up): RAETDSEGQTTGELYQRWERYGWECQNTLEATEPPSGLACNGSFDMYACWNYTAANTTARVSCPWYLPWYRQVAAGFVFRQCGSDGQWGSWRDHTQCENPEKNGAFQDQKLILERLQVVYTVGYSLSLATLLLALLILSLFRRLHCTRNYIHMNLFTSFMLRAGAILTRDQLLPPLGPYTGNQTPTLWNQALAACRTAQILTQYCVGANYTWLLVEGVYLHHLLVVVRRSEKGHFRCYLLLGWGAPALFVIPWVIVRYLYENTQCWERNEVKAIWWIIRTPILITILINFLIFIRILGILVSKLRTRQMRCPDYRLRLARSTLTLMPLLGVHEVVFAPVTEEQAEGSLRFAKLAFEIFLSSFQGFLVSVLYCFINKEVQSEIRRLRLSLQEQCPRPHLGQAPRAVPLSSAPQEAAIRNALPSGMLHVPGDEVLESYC

B1: IP276 (Fc fusion)
chain: YSEGTFTSDYSKLLEEEAVRLFIEWLVKGPGGGGGGGGGGGGGGGGGATHTCPPC
B2: IP293 (Fc fusion)
chain: B1 chain with L21C, W25C, A48G, T49G, H50G, T51A
B3: IP294 (Fc fusion)
chain: B1 chain with E24C, K28C, A48G, T49G, H50G, T51A
B4: IP278 (Fc fusion)
chain: YSEGTFTSDYSKLLEEEAVRLFIEWLVKGPPSSGAPPPSGGGGGSGGGGSGGGGSGGGGSATHTCPPC
B5: IP295 (Fc fusion)
chain: B4 chain with V27L, K28A, P30G
B6: IP280 (Fc fusion)
chain: B4 chain with P30G
B7: IP279 (Fc fusion)
chain: YSEGTFTSDYSKLLEEEAVRLFIEWLVKGPSSGAPPPSGGGGGSGGGGSGGGGSGGGGSATHTCPPC
B8: IP268 (Fc fusion)
chain: YSEGTFTSDYSKLLEEEAVRLFIEWLVKGPGGGGGSGGGGSGGGGSGGGGSATHTCPPC
B9: IP274 (Fc fusion)
chain: B8 chain with E16K, V27L
B10: IP272 (Fc fusion)
chain: YSEGTFTSDYSKLLEEEAVRLFIEWLLAQKAPPGGSGSTASSGSGSATGGGGAATHTCPPC
B11: IP273 (Fc fusion)
chain: B10 chain with L27V, A28K, Q29G, K30P, P32A, P33A
B12: IP291 (Fc fusion)
chain: YSEGTFTSDYSKLLEEECVRLFIEWLVKGGPGGGAPPPGCGGGGGGGGGGGGGGGGGACPPC
B13: IP292 (Fc fusion)
chain: B12 chain with C18A, L21C, P38C, C40G

The binders below were run against human GLP-1 receptor (human, UniProt P43220 24-463) (assay: cell-based or functional assay).

Row | Binder | cAMP EC50 [nM] | cAMP EC50, Batch 2 [nM] | cAMP EC50, Batch 3 [nM]
1 | B1 | 0.16 |  | 
2 | B2 | 1.6 |  | 
3 | B3 | 27 |  | 
4 | B4 | 0.13 |  | 
5 | B5 | 0.091 | 0.14 | 0.15
6 | B6 | 0.077 | 0.058 | 0.08
7 | B7 | 0.1 |  | 
8 | B8 | 0.12 |  | 
9 | B9 | 0.36 | 0.2 | 
10 | B10 | 0.53 |  | 
11 | B11 | 0.1 |  | 
12 | B12 | 12 |  | 
13 | B13 | 0.26 | 1.1 | 

The binders below were run against human glucagon receptor (human, UniProt P47871 26-477) (assay: cell-based or functional assay).

Row | Binder | cAMP EC50 [nM] | cAMP EC50, Batch 2 [nM] | cAMP EC50, Batch 3 [nM]
14 | B1 | 1500 |  | 
15 | B2 | > 13000 |  | 
16 | B3 | > 6810 |  | 
17 | B4 | 78 |  | 
18 | B5 | 41 | 32 | 23
19 | B6 | 520 | 270 | 280
20 | B7 | 170 |  | 
21 | B8 | 2900 |  | 
22 | B9 | 38 | 30 | 
23 | B10 | 1700 |  | 
24 | B11 | 670 |  | 
25 | B12 | > 10600 |  | 
26 | B13 | > 13600 | > 14900 | 

The binders below were run against T1, human GIP receptor (assay: cell-based or functional assay).

Row | Binder | cAMP EC50 [nM] | cAMP EC50, Batch 2 [nM] | cAMP EC50, Batch 3 [nM] | cAMP EC50, hGIPr (C3) line [nM]
27 | B1 | 0.013 |  |  | 
28 | B2 | 1.2 |  |  | 
29 | B3 | 1.3 |  |  | 
30 | B4 | 0.011 |  |  | 
31 | B5 | 0.0043 | 0.012 | 0.0086 | 
32 | B6 | 0.0056 | 0.0045 | 0.0064 | 
33 | B7 | 0.01 |  |  | 
34 | B8 | 0.01 |  |  | 3.8
35 | B9 | 0.017 | 0.014 |  | 
36 | B10 | 0.011 |  |  | 
37 | B11 | 0.0084 |  |  | 
38 | B12 | 0.12 |  |  | 
39 | B13 | 0.043 | 0.046 |  | 

These binders were tested against T2, mouse GLP-1 receptor (assay: cell-based or functional assay).

Row | Binder | cAMP EC50 [nM] | cAMP EC50, Batch 2 [nM] | cAMP EC50, Batch 3 [nM]
40 | B1 | 0.34 |  | 
41 | B2 | 13 |  | 
42 | B3 | 350 |  | 
43 | B4 | 0.32 |  | 
44 | B5 | 0.35 | 0.241 | 0.34
45 | B6 | 0.21 |  | 
46 | B7 | 0.22 |  | 
47 | B8 | 0.28 |  | 
48 | B9 | 1.2 |  | 
49 | B10 | 2.3 |  | 
50 | B11 | 0.19 |  | 
51 | B12 | 120 |  | 
52 | B13 | 1.2 | 1.32 | 

The binders below were run against T3, mouse GIP receptor (assay: cell-based or functional assay).

Row | Binder | cAMP EC50 [nM] | cAMP EC50, Batch 2 [nM] | cAMP EC50, Batch 3 [nM]
53 | B1 | 510 |  | 
54 | B2 | 7800 |  | 
55 | B3 | > 6800 |  | 
56 | B4 | 85 |  | 
57 | B5 | 0.66 | 1.2 | 0.571
58 | B6 | 8.8 |  | 
59 | B7 | 43 |  | 
60 | B8 | 210 |  | 
61 | B9 | 1 |  | 
62 | B10 | 11 |  | 
63 | B11 | 85 |  | 
64 | B12 | 680 |  | 
65 | B13 | 66 | 55.4 | 

These binders were tested against T4, rat GLP-1 receptor (assay: cell-based or functional assay).

Row | Binder | cAMP EC50 [nM] | cAMP EC50, Batch 2 [nM] | cAMP EC50, Batch 3 [nM]
66 | B1 | 0.028 |  | 
67 | B2 | 0.45 |  | 
68 | B3 | 7.1 |  | 
69 | B4 | 0.026 |  | 
70 | B5 | 0.023 | 0.018 | 0.0286
71 | B6 | 0.027 |  | 
72 | B7 | 0.024 |  | 
73 | B8 | 0.026 |  | 
74 | B9 | 0.057 |  | 
75 | B10 | 0.085 |  | 
76 | B11 | 0.02 |  | 
77 | B12 | 3 |  | 
78 | B13 | 0.037 | 0.0432 | 

These binders were tested against T5, rat GIP receptor (assay: cell-based or functional assay).

Row | Binder | cAMP EC50 [nM] | cAMP EC50, Batch 2 [nM] | cAMP EC50, Batch 3 [nM]
79 | B1 | 0.26 |  | 
80 | B2 | 16 |  | 
81 | B3 | 100 |  | 
82 | B4 | 0.13 |  | 
83 | B5 | 0.041 | 0.0658 | 0.025
84 | B6 | 0.046 |  | 
85 | B7 | 0.097 |  | 
86 | B8 | 0.15 |  | 
87 | B9 | 0.028 |  | 
88 | B10 | 0.048 |  | 
89 | B11 | 0.09 |  | 
90 | B12 | 1.4 |  | 
91 | B13 | 0.29 | 0.186 | 
